Target: microtubules (paclitaxel-stabilised polymerised tubulin) (human (endogenous in HEK293T)) (UniProt P68363)
Assay: co-sedimentation; cell-based MT binding assay: lysate of transfected HEK293T cells in PEM buffer (80 mM PIPES pH 6.8, 1 mM EGTA, 1 mM MgCl2) with 0.1% Triton X-100, 2 mM GTP, 20 uM paclitaxel; 37 °C 30 min; 100,000 g 30 min; tau in supernatant and pellet by Western blot; percent MT-bound = pellet/(supernatant+pellet)*100

Chain of UniProt P68363 (P68363 whole entry, chain 1 of 2): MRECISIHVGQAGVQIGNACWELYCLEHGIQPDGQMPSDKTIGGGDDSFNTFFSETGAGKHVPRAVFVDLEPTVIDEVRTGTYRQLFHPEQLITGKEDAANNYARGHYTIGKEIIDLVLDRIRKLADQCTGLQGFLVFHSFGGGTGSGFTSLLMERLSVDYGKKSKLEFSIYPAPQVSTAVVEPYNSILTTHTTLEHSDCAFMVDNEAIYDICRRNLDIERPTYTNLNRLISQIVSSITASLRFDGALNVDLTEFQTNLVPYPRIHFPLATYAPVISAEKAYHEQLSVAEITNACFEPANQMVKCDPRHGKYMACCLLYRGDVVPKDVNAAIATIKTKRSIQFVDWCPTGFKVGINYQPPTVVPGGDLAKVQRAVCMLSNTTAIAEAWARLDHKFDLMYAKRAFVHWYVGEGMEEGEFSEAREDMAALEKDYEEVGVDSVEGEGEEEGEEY
Chain of UniProt P68363 (P07437 whole entry, chain 2 of 2, further chain): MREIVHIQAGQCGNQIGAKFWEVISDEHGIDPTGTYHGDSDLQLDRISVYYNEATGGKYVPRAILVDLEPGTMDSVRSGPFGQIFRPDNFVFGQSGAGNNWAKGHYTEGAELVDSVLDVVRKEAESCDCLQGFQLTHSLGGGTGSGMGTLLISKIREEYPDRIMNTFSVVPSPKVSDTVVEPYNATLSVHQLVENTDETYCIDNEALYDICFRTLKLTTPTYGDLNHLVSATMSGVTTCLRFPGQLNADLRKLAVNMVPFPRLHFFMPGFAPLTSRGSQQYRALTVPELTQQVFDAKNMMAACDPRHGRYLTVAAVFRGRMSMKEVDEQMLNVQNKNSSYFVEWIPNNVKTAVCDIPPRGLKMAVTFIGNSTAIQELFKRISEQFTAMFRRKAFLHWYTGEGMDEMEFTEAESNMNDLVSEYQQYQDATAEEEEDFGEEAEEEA

Substance: 2N4R human tau S208E phosphomimetic (from UniProt P10636-8 1-441) (natural protein)
- percent of tau bound to MTs: 41%

Source: article PMC7310041
